Laboratory results reported in publication PMC12802937.
Numbering of substitutions follows the chain as printed. Numbers in names are those of the source.

B1: intein-CBD-tagged WAC-CT (WAC residues 570–647) (domain or fragment)
chain: HVQGWPADHAEKQASRLREEAHNMGTIHMSEICTELKNLRSLVRVCEIQATLREQRILFLRQQIKELEKLKNQNSFMV
B2: intein-WAC S4 (R630E) (domain or fragment)
chain: B1 chain with R61E

Key:
[1] = target: RNF-MD S5i (E766K in RNF20 and K57E/R804E in RNF40) (human) (UniProt Q5VTR2); assay: SPR; RNF-MD immobilised on a CM5 chip, intein-WAC flown over; Biacore 8K, 25°C, 20 mM HEPES (pH 7.5), 200 mM sodium chloride, 0.02% Tween 20
[2] = target: RNF-MD S4i (D780K in RNF20) (human) (UniProt Q5VTR2); assay: as above

Binder	Kd [1] [nM]	koff [1] [s⁻¹]	kon [1] [M⁻¹ s⁻¹]	Kd [2] [nM]	koff [2] [s⁻¹]	kon [2] [M⁻¹ s⁻¹]
B1	464	0.0142	30500	–	–	–
B2	–	–	–	249	0.0435	17500
